In patent publication US20050148511A1:

What was measured:
[1] = target: FGFR3IIIc expressed on FDCP cells; assay: cell-based or functional assay
[2] = target: FGFR1 expressed on FDCP cells; assay: cell-based or functional assay

## FGF2(3,5Q)-N111G (ligand)
[1]
  EC50 (effective concentration), mitogenicity on FGFR-transfected FDCP cells: 0.3 to 0.65 ng/mL
[2]
  EC50 (effective concentration), mitogenicity on FGFR-transfected FDCP cells: 0.35 to 1 ng/mL

## wild type FGF-2 (from UniProt P09038 1-155) (ligand)
[1]
  EC50 (effective concentration), mitogenicity on FGFR-transfected FDCP cells: 4.2 ng/mL
[2]
  EC50 (effective concentration), mitogenicity on FGFR-transfected FDCP cells: 2.65 ng/mL
